Patent US20020037288A1

How the values were obtained:
[1] = target: HM1.24 antigen protein (human); experiment: FCM, indirect method, 25 ug/ml antibody; JM cells (T cell line)
[2] = target: HM1.24 antigen protein (human); experiment: FCM, indirect method, 25 ug/ml antibody; CESS cells (B cell line)
[3] = target: HM1.24 antigen protein (human); experiment: FCM, indirect method, 25 ug/ml antibody; EB-3 cells (B cell line)
[4] = target: HM1.24 antigen protein (human); experiment: FCM, indirect method, 25 ug/ml antibody; KT-3 cells (T cell line)
[5] = target: HM1.24 antigen protein (human); experiment: FCM, indirect method, 25 ug/ml antibody; MT-1 cells (T cell line)
[6] = target: HM1.24 antigen protein (human); experiment: FCM, indirect method, 25 ug/ml antibody; MC116 cells (B cell line)
[7] = target: HM1.24 antigen protein (human); experiment: FCM, indirect method, 25 ug/ml antibody; Jijoye cells (B cell line)
[8] = target: HM1.24 antigen protein (human); experiment: FCM, indirect method, 25 ug/ml antibody; Jurkat cells (T cell line)
[9] = target: HM1.24 antigen protein (human); experiment: FCM, indirect method, 25 ug/ml antibody; MOLT-4 cells (T cell line)
[10] = target: HM1.24 antigen protein (human); experiment: FCM, indirect method, 25 ug/ml antibody; CCRF-SB cells (B cell line)
[11] = target: HM1.24 antigen protein (human); experiment: FCM, indirect method, 25 ug/ml antibody; HPB-ALL cells (T cell line)
[12] = target: HM1.24 antigen protein (human); experiment: FCM, indirect method, 25 ug/ml antibody; HPB-MLT cells (T cell line)
[13] = target: HM1.24 antigen protein (human); experiment: FCM, indirect method, 25 ug/ml antibody; SKW 6.4 cells (B cell line)
[14] = target: HM1.24 antigen protein (human); experiment: FCM, indirect method, 25 ug/ml antibody; CCRF-CEM cells (T cell line)
[15] = target: HM1.24 antigen protein (human); experiment: FCM, indirect method, 25 ug/ml antibody; RPMI 6410 cells (B cell line)
[16] = target: HM1.24 antigen protein (human); experiment: FCM, indirect method, 25 ug/ml antibody; RPMI 8402 cells (T cell line)
[17] = target: HM1.24 antigen protein (human); experiment: FCM, indirect method, 25 ug/ml antibody; CCRF-HSB-2 cells (T cell line)

Substance: mouse anti-HM1.24 monoclonal antibody
- percentage of HM1.24 antigen-positive cells (Expression rate) [1]: 99.6%
- percentage of HM1.24 antigen-positive cells (Expression rate) [2]: 94.5%
- percentage of HM1.24 antigen-positive cells (Expression rate) [3]: 88.3%
- percentage of HM1.24 antigen-positive cells (Expression rate) [4]: 96%
- percentage of HM1.24 antigen-positive cells (Expression rate) [5]: 95.9%
- percentage of HM1.24 antigen-positive cells (Expression rate) [6]: 65%
- percentage of HM1.24 antigen-positive cells (Expression rate) [7]: 92.3%
- percentage of HM1.24 antigen-positive cells (Expression rate) [8]: 70.9%
- percentage of HM1.24 antigen-positive cells (Expression rate) [9]: 84.1%
- percentage of HM1.24 antigen-positive cells (Expression rate) [10]: 98.4%
- percentage of HM1.24 antigen-positive cells (Expression rate) [11]: 63.8%
- percentage of HM1.24 antigen-positive cells (Expression rate) [12]: 94.6%
- percentage of HM1.24 antigen-positive cells (Expression rate) [13]: 92.8%
- percentage of HM1.24 antigen-positive cells (Expression rate) [14]: 97.8%
- percentage of HM1.24 antigen-positive cells (Expression rate) [15]: 94.5%
- percentage of HM1.24 antigen-positive cells (Expression rate) [16]: 94%
- percentage of HM1.24 antigen-positive cells (Expression rate) [17]: 100%
